B1: U4/U6 small nuclear ribonucleoprotein Prp31 (Homo sapiens), Q8WWY3 (parent)
chain: MSLADELLADLEEAAEEEEGGSYGEEEEEPAIEDVQEETQLDLSGDSVKTIAKLWDSKMFAEIMMKIEEYISKQAKASEVMGPVEAAPEYRVIVDANNLTVEIENELNIIHKFIRDKYSKRFPELESLVPNALDYIRTVKELGNSLDKCKNNENLQQILTNATIMVVSVTASTTQGQQLSEEELERLEEACDMALELNASKHRIYEYVESRMSFIAPNLSIIIGASTAAKIMGVAGGLTNLSKMPACNIMLLGAQRKTLSGFSSTSVLPHTGYIYHSDIVQSLPPDLRRKAARLVAAKCTLAARVDSFHESTEGKVGYELKDEIERKFDKWQEPPPVKQVKPLPAPLDGQRKKRGGRRYRKMKERLGLTEIRKQANRMSFGEIEEDAYQEDLGFSLGHLGKSGSGRVRQTQVNEATKARISKTLQRTLQKQSVVYGGKSTIRDRSSGTASSVAFTPLQGLEIVNPQAAEKKVAEANQKYFSSMAEFLKVKGEKSGLMST
partner: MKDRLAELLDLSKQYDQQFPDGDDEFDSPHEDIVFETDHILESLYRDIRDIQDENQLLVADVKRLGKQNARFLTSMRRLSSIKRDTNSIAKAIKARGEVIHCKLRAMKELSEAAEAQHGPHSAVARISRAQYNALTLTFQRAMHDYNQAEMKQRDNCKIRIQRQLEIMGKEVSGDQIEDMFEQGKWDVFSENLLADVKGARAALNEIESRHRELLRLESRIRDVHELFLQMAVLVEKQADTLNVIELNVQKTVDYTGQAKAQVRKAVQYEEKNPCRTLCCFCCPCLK
B2: Iodotyrosine deiodinase 1 (Homo sapiens), Q6PHW0 (parent)
chain: MYFLTPILVAILCILVVWIFKNADRSMEKKKGEPRTRAEARPWVDEDLKDSSDLHQAEEDADEWQESEENVEHIPFSHNHYPEKEMVKRSQEFYELLNKRRSVRFISNEQVPMEVIDNVIRTAGTAPSGAHTEPWTFVVVKDPDVKHKIRKIIEEEEEINYMKRMGHRWVTDLKKLRTNWIKEYLDTAPILILIFKQVHGFAANGKKKVHYYNEISVSIACGILLAALQNAGLVTVTTTPLNCGPRLRVLLGRPAHEKLLMLLPVGYPSKEATVPDLKRKPLDQIMVTV
partner: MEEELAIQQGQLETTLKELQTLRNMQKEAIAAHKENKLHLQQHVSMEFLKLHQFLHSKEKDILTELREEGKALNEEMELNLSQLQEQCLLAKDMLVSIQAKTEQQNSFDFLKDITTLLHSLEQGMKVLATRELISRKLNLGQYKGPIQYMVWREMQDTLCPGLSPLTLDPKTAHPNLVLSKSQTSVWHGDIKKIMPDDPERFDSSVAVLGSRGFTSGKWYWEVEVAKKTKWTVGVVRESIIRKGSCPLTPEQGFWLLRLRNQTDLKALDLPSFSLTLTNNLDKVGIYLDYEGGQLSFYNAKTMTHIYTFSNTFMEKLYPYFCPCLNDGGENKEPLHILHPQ
B3: Emerin (Homo sapiens), P50402 (parent)
chain: MDNYADLSDTELTTLLRRYNIPHGPVVGSTRRLYEKKIFEYETQRRRLSPPSSSAASSYSFSDLNSTRGDADMYDLPKKEDALLYQSKGYNDDYYEESYFTTRTYGEPESAGPSRAVRQSVTSFPDADAFHHQVHDDDLLSSSEEECKDRERPMYGRDSAYQSITHYRPVSASRSSLDLSYYPTSSSTSFMSSSSSSSSWLTRRAIRPENRAPGAGLGQDRQVPLWGQLLLFLVFVIVLFFIYHFMQAEEGNPF
partner: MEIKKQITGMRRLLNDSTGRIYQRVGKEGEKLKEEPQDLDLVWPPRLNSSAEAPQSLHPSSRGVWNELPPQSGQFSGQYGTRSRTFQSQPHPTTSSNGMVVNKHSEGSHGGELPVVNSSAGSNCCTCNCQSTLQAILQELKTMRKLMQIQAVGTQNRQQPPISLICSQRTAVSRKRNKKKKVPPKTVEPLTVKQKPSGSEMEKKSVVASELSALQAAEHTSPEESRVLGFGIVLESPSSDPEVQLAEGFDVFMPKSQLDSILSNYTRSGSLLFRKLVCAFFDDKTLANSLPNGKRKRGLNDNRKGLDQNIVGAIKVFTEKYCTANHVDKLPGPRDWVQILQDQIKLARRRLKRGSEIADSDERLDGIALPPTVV

Variants of: B1
Settings: with stx11_human STX11, O75558

Row | effect of a mutation on the interaction | Variant
1 | with no effect | MSLADELLADLEEAAEEEEGGSYGEEEEEPAIEDVQEETQLDLSGDSVKTIAKLWDSKMFAEIMMKIEEYISKQAKASEVMGPVEAAPEYRVIVDANNLTVEIENEVNIIHKFIRDKYSKRFPELESLVPNALDYIRTVKELGNSLDKCKNNENLQQILTNATIMVVSVTASTTQGQQLSEEELERLEEACDMALELNASKHRIYEYVESRMSFIAPNLSIIIGASTAAKIMGVAGGLTNLSKMPACNIMLLGAQRKTLSGFSSTSVLPHTGYIYHSDIVQSLPPDLRRKAARLVAAKCTLAARVDSFHESTEGKVGYELKDEIERKFDKWQEPPPVKQVKPLPAPLDGQRKKRGGRRYRKMKERLGLTEIRKQANRMSFGEIEEDAYQEDLGFSLGHLGKSGSGRVRQTQVNEATKARISKTLQRTLQKQSVVYGGKSTIRDRSSGTASSVAFTPLQGLEIVNPQAAEKKVAEANQKYFSSMAEFLKVKGEKSGLMST [L107V]

Variants of: B2
Settings: with TRIM69, Q86WT6-2

Row | effect of a mutation on the interaction | Variant
2 | with no effect | MYFLTPILVAILCILVVWIFKNADRSMEKKKGEPRTRAEARPWVDEDLKDSSDLHQAEEDADEWQESEENVEHIPFSHNHYPEKEMVKRSQEFYELLNKRWSVRFISNEQVPMEVIDNVIRTAGTAPSGAHTEPWTFVVVKDPDVKHKIRKIIEEEEEINYMKRMGHRWVTDLKKLRTNWIKEYLDTAPILILIFKQVHGFAANGKKKVHYYNEISVSIACGILLAALQNAGLVTVTTTPLNCGPRLRVLLGRPAHEKLLMLLPVGYPSKEATVPDLKRKPLDQIMVTV [R101W]
3 | with no effect | MYFLTPILVAILCILVVWIFKNADRSMEKKKGEPRTRAEARPWVDEDLKDSSDLHQAEEDADEWQESEENVEHIPFSHNHYPEKEMVKRSQEFYELLNKRRSVRFISNEQVPMEVTDNVIRTAGTAPSGAHTEPWTFVVVKDPDVKHKIRKIIEEEEEINYMKRMGHRWVTDLKKLRTNWIKEYLDTAPILILIFKQVHGFAANGKKKVHYYNEISVSIACGILLAALQNAGLVTVTTTPLNCGPRLRVLLGRPAHEKLLMLLPVGYPSKEATVPDLKRKPLDQIMVTV [I116T]

Variants of: B3
Settings: with BEND7, Q8N7W2-2

Row | effect of a mutation on the interaction | Variant
4 | with no effect | MDNYADLSDTELTTLLRRYNIPHGPVVGSTRRLYEKKIFEYETQRRRLSPPSSSAASSYSFSDLNSTRGDADMYDLPKKEDALLYQSKGYNDDYYEESYFTTRTYGEPESAGPSRAVRQSVTSFPDADAFHHQVHDDDLLSSSEEECKDRERPMYGRDSAYQSITHYRPVSASRSSLDLSYYTTSSSTSFMSSSSSSSSWLTRRAIRPENRAPGAGLGQDRQVPLWGQLLLFLVFVIVLFFIYHFMQAEEGNPF [P183T]
5 | with no effect | MDNYADLSDTELTTLLRRYNIPHGPVVGSTRRLYEKKIFEYETQRRRLSPPSSSAASSYSFSDLNSTRGDADMYDLPKKEDALLYQSKGYNDDYYEESYFTTRTYGEPESAGPSRAVRQSVTSFPDADAFHHQVHDDDLLSSSEEECKDRERPMYGRDSAYQSITHYRPVSASRSSLDLSYYHTSSSTSFMSSSSSSSSWLTRRAIRPENRAPGAGLGQDRQVPLWGQLLLFLVFVIVLFFIYHFMQAEEGNPF [P183H]
6 | with no effect | MDNYADLSDTELTTLLRRYNIPHGPVVGSTRRLYEKKIFEYETQRRRLSPPSSFAASSYSFSDLNSTRGDADMYDLPKKEDALLYQSKGYNDDYYEESYFTTRTYGEPESAGPSRAVRQSVTSFPDADAFHHQVHDDDLLSSSEEECKDRERPMYGRDSAYQSITHYRPVSASRSSLDLSYYPTSSSTSFMSSSSSSSSWLTRRAIRPENRAPGAGLGQDRQVPLWGQLLLFLVFVIVLFFIYHFMQAEEGNPF [S54F]
